Results taken from patent US20140056903A1 (Regeneron, published 2014).
Where a chain is given by its changes, count along the chain named. Numbers in names are those of the source.

B1: H4H2342P (antibody, human IgG4, V domains shown)
VH: EVQLLESGGGLVQPGGSLRLSCAASGFTFSTYAMSWVRQAPGKGLEWVSAIRGNGVNTYYGDSMKGRFTISRDNSKDTLYLQMNSLRAEDTAVYYCAKNKWELLVFEYWGQGTLVTVSS
VL: DIQMTQSPSSLSASVGDRVTITCRASQDISNYLAWYQQKPGKVPKLLIYAASTLQSGVPFRFSGSGSGTDFTLTISSLQPEDVATYYCQKYNSAPPFGPGTKVDIK
notes: human IgG4 Fc (H4H)
B2: H4H2291S (antibody, human IgG4, V domains shown)
VH: EVQLVESGGGLVQPGESLRLSCAASGFTFSNYAMSWVRQAPGKGLEWVSVISGSGGSTYYADSVKGRFTMSRDNSKNTLYLQMNSLRAEDTAVYYCAKPPSRAARYFNYGMDVWGQGTTVTVSS
VL: AIRMTQSPSSVSASVGDRVTITCRASQGISSWLAWYQQKPGKAPKLLIYAASSLQSGVPSRFSGSGSGTDFTLTISSLQPEDFATYYCQQANSFPFTFGGGTKVEIK
notes: human IgG4 Fc (H4H)
B3: H4H2295S (antibody, human IgG4, V domains shown)
VH: EVQLVESGGGLVQAGGSLRLSCVASGFTFSSYAMSWVRQAPGKGLEWVSAISGSGGSTYSADSVKGRFTISRDNSKNTLYLQMNSLRAEDTAVYYCTKPSSYSSSNFYYGMDVWGQGTTVTVSS
VL: B2 VL with A1D, R3Q, A50T, G68R, A91T, F94L, F96L, G100P
notes: human IgG4 Fc (H4H)
B4: H4H2296S (antibody, human IgG4, V domains shown)
VH: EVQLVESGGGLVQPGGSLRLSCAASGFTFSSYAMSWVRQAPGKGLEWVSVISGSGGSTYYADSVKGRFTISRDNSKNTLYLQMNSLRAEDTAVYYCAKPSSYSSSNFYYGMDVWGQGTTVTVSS
VL: B2 VL with A1D, R3V, Q55R, S76T, Q90H, A91T, G100P
notes: human IgG4 Fc (H4H)
B5: H4H2350P (antibody, human IgG4, V domains shown)
VH: QVQLQESGPGLVKPSETLSLTCTVSGGSISTYYWSWFRQPPGKGLEWIGYIYYSGSTNHNPSLKSRVTISVDTSKNQFSLKLRSVTAADTAVYYCARVGPVGWGSWGNFDYWGQGTLVTVSS
VL: DIQLTQSPSFLSASVGDRVTITCWASQGISSYLAWSQQKPGKAPKLLIYAASTLQSGVPSRFSGSGSGTEFTLTISSLQPEDFATYYCQQLNSYPWTFGQGTKVEIK
notes: human IgG4 Fc (H4H)
B6: H4H2355S (antibody, human IgG4, V domains shown)
VH: EVQLVESGGGLVQPGGSLRLSCAASGFTFSSYAMSWVRQVPGKGLEWVSAISGSGDNTYNAESVKGRFTISRDNSKNMLYLQMNSLRAEDTAVYYCAKTKFSSSLLFDYWGQGTLVTVSS
VL: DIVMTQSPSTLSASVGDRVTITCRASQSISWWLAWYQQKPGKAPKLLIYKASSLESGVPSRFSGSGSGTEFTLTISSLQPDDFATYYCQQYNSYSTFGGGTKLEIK
notes: human IgG4 Fc (H4H)
B7: H4H2236N3 (antibody, human IgG4, V domains shown)
VH: EVQLLESGGNLVQPGGSLRLSCAASGFTFSSYAMTWVRQAPGKGLEWVSTISGSGTSTYYADSVKGRFTISRDNSRDTVFLQMNSLRAEDTAVYYCSKPSALRFLHWLAMDVWGQGTLVTVSS
VL: DIQMTQSPSSLSAFVGDRVTITCRASQDIRNYLDWFQQKPGKAPKSLIYAASNLQSGVPSRFGGSGSGTDFTLTINSLQPEDFVTYYCQQYNSYPPTFGGGTKVEIK
notes: human IgG4 Fc (H4H)
B8: H4H2243N2 (antibody, human IgG4, V domains shown)
VH: QVQLVQSGAEVKKPGASVKVSCKASGYTFTSYGIIWVRQAPGQGLEWMGWISGYNGNTNYAQNLQGRVTMTTDTSTTTAYMELRSLRSDDTAVYYCARWGIATRPYYYYGMDVWGQGTTVTVSS
VL: B7 VL with F14S, R30T, D34A, N53S, R61K, G63S, N76S, V84A, G100P, E105D
notes: human IgG4 Fc (H4H)
B9: H4H2212N (antibody, human IgG4, V domains shown)
VH: EVQLLESGGGLVQPGGSLRLSCAASGFTFSSYAMSWVRQGPGKGLEWVSGISGSGGSTYNADSVKGRFTISRDNSKNTLYLQMNSLRAEDTAVYYCAKDSGTYWYYFDYWGQGILVTVSS
VL: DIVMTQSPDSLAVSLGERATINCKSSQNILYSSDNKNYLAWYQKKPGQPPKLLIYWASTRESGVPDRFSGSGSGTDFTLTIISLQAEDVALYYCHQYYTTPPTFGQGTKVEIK
notes: human IgG4 Fc (H4H)

Legend:
[1] = biological target: T1, monkey GFRα3 expressed with a C-terminal myc-myc-hexahistidine tag (monkey (Mf), UniProt O60609 32-374 (human entry), limits assumed); assay: SPR, Ab captured, 25C
T1 construct: also called MfGFRα3-mmh; MfGFRα3-mmH
T1 chain: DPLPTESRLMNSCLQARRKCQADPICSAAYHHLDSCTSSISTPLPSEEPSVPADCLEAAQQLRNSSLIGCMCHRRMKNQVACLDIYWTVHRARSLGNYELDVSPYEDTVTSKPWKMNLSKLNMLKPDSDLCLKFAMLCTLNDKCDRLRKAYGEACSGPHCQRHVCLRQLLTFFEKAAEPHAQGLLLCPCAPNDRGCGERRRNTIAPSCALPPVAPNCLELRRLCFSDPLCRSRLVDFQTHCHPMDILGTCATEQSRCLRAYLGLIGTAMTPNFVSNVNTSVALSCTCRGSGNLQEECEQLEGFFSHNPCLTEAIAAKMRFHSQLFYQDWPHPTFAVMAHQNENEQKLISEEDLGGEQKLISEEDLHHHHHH
Protocol: Antibodies were tested for binding to human GFRα3 expressed with either a C-terminal myc-myc-hexahistidine tag (hGFRα3-mmh; SEQ ID: 370, a C-terminal hFc tag (hGFRα3-hFc; SEQ ID:371), or a C-terminal mFc tag (hGFRα3-mFc; SEQ ID:372), as well as monkey GFRα3 expressed with a C-terminal myc-myc-hexahistidine tag (MfGFRα3-mmh; SEQ ID:373). Anti-GFRα3 antibodies were captured on either a goat anti-mouse IgG polyclonal antibody (GE Healthcare, #BR-1008-38) or a mouse anti-human IgG monoclonal antibody (GE Healthcare, #BR-1008-39) surface created through direct amine coupling to a Biacore CM5 sensor chip. Kinetic experiments were carried out using HBS-EP (10 mM HEPES, 150 mM NaCl, 3 mM EDTA, 0.05% Surfactant P20, at pH 7.4) or PBS buffer containing 0.05% v/v surfactant P20 as both the running buffer and the sample buffer. Binding to human GFRα3-mmh or monkey GFRα3-mmh was evaluated by injecting several concentrations ranging from 200 to 7.4 nM (3-fold dilutions) across the captured antibody surface. Binding to human GFRα3-mFc or human GFRα3-hFc was evaluated by injecting several concentrations ranging from 100 to 3.7 nM (3-fold dilutions) across the captured antibody surface. Antibody-antigen association was monitored for up to 4 minutes, while dissociation in buffer was monitored for up to 20 minutes. Kinetic association (kₐ) and dissociation (kd) rate constants were determined by processing and fitting the data to a 1:1 binding model using Scrubber 2.0c curve fitting software. Binding dissociation equilibrium constants (KD) and dissociative half-lives (t_{1/2}) were calculated from the kinetic rate constants as: KD (M)=kd/kₐ and t_{1/2} (min)=[ln 2/(60*kd)].

[2] = biological target: T1, monkey GFRα3 expressed with a …; assay: SPR, Ab captured, 37C
Outline: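 Anti-GFRα3 antibodies were captured on anti-mouse or anti-human IgG surfaces on a CM5 chip in HBS-EP or PBS with 0.05% P20. Myc-myc-His-tagged antigens were injected at 200 to 7.4 nM, hFc-tagged at 100 to 3.7 nM (3-fold dilutions). Rates were fitted to a 1:1 model; KD = kd/kₐ.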

[3] = biological target: T2, human GFRα3 on HEK293/hGFRα3/hRET/SRE-luc cells (human, UniProt O60609 32-382); assay: cell-based or functional assay
T2 sequence: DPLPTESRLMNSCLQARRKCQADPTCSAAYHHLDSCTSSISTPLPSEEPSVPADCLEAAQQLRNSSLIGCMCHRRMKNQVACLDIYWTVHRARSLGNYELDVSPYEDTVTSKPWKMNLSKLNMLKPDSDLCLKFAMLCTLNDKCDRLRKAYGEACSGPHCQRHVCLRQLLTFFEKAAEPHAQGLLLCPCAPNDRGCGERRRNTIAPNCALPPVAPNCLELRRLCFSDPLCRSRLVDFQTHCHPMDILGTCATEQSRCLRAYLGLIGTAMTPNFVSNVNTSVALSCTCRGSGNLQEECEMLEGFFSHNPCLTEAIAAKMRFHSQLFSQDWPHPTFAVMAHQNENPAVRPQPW

[4] = biological target: T3, human GFRα3 expressed with a C-terminal myc-myc-hexahistidine tag (human, UniProt O60609 32-374, biotinylated (sites not given) in ELISA format 2 and in the Octet cross-competition; not in SPR); assay: Octet cross-competition; biotin-hGFRα3-mmH pre-saturated with first antibody H4H2294S
T3 construct: also called hGFRα3-mmh; hGFRα3-mmH
Protocol: (§1) A cross-competition assay was conducted to assess the ability of select antibodies to compete with one another for binding to human GFRα3 using an Octet RED384 biosensor (Fortebio Inc.). The entire experiment was performed at 25° C. with the flow rate of 1000 rpm in Octet HBST buffer (0.01 M HEPES pH7.4, 0.15M NaCl, 3 mM EDTA, 0.05% v/v Surfactant P20, 0.1 mg/mL BSA). To assess whether 2 antibodies were able to compete with one another for binding to their respective epitopes on biotinylated recombinant human GFRα3 expressed with a C-terminal myc-myc-hexahistidine tag (biotin-hGFRα3-mmH; SEQ ID:370), around ˜1.2 nm of biotin-hGFRα3-mmH was first captured onto streptavidin-coated Octet sensor tips (Fortebio Inc, #18-5019) by submerging the tips for 1 minute into a 10 μg/mL solution of biotin-hGFRα3-mmH. The antigen coated sensor tips were then placed into wells containing 25 μg/mL solution of a first anti-GFRα3 monoclonal antibody for 4 minutes to saturate the biotin-hGFRα3-mmH surface. The sensor tips were then subsequently dipped into wells containing 25 μ/mL solution of a second anti-GFRα3 monoclonal antibody. The sensor tips were washed in Octet HBST buffer in between every step of the experiment. The real-time binding response was monitored during the course of the experiment and the binding response at the end of every step was recorded as shown in FIG. 9. The response of mAb-2 binding to biotin-hGFRα3-mmH pre-complexed with the first antibody was compared and competitive/non-competitive behavior of different anti-GFRα3 monoclonal antibodies was determined.

[5] = biological target: T3, human GFRα3 expressed with a C-terminal …; assay: Octet cross-competition; biotin-hGFRα3-mmH pre-saturated with first antibody H4H2212N
Protocol: as §1

| Binder | Kd [1] | koff [1] | kon [1] | t1/2 [1] | Kd [2] | koff [2] | kon [2] | t1/2 [2] | IC50 (SRE-luc, HEK293/hGFRα3/hRET cells, 100 pM hARTEMIN-mmH) [3] | binding response of second antibody (nm) [4] | binding response of second antibody (nm) [5] |
| --- | --- | --- | --- | --- | --- | --- | --- | --- | --- | --- | --- |
| B1 | 5.87 nM | 0.00055 s⁻¹ | 93700 M⁻¹ s⁻¹ | 21 min | 11.1 nM | 0.00166 s⁻¹ | 150000 M⁻¹ s⁻¹ | 7 min | 1 nM | 0.01 nm | 2.17 nm |
| B2 | 1.85 nM | 0.000279 s⁻¹ | 151000 M⁻¹ s⁻¹ | 41 min | 1.94 nM | 0.000693 s⁻¹ | 357000 M⁻¹ s⁻¹ | 17 min | 1.3 nM | 0.12 nm | 2.69 nm |
| B3 | 5.32 nM | 0.000973 s⁻¹ | 183000 M⁻¹ s⁻¹ | 12 min | 20.4 nM | 0.00561 s⁻¹ | 276000 M⁻¹ s⁻¹ | 2 min | 1.5 nM | 0.04 nm | 2.15 nm |
| B4 | 3.37 nM | 0.000651 s⁻¹ | 193000 M⁻¹ s⁻¹ | 18 min | 10.3 nM | 0.00285 s⁻¹ | 277000 M⁻¹ s⁻¹ | 4 min | 1.4 nM | 0.04 nm | 2.36 nm |
| B5 | 1.71 nM | 0.000111 s⁻¹ | 64700 M⁻¹ s⁻¹ | 104 min | 12 nM | 0.000896 s⁻¹ | 74800 M⁻¹ s⁻¹ | 13 min | – | 1.42 nm | 1.36 nm |
| B6 | 0.649 nM | 6.78e-05 s⁻¹ | 105000 M⁻¹ s⁻¹ | 170 min | 5.29 nM | 0.000913 s⁻¹ | 173000 M⁻¹ s⁻¹ | 13 min | 2.3 nM | 0 nm | 2.05 nm |
| B7 | – | – | – | – | – | – | – | – | 1.5 nM | 0.05 nm | 2.14 nm |
| B8 | – | – | – | – | – | – | – | – | 0.3 nM | 0.03 nm | 0.16 nm |
| B9 | – | – | – | – | – | – | – | – | 0.8 nM | 1.92 nm | 0.05 nm |
